± gives the uncertainty stated by the source.

The text below walks through data of the supplement of paper PMC9732359.

This data set in a line: protein stability index of a GFP-peptide fusion (yeast GPS) (PSI 1-4); higher = more stable; sorted into four equal gates, so the index is relative within each strain. The method in brief: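 The protein stability index of a peptide was calculated by multiplying its read frequency in each gate by that gate's number and adding the products. The peptides were tiled 17-residue stretches of yeast proteins, fused downstream of GFP on a Cherry-expressing plasmid and carried in yeast as a pooled library. Mid-log cultures in leucine-free medium were sorted into four equal gates by GFP/Cherry ratio, and each gate's plasmids were PCR-amplified and Illumina-sequenced.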

On to LGKYDLTVIEKLDSKKI [SRP68], for which the protein stability index is, setting by setting: (pdr5∆) 2.86 ± 0.23; (san1∆) 3.53 ± 0.12; (ubr1∆) 3.63 ± 0.16.
VVVDTVECAQHCIDYLR [SMC4]: the protein stability index is 3.06 ± 0.11 (doa10∆), 2.79 ± 0.22 (pdr5∆), 3.26 ± 0.074 (san1∆) and 3.01 ± 0.1 (ubr1∆).
As to YQELIKNGALVSNILSA [YJL039C/NUP192], the protein stability index by setting is: (doa10∆) 1.76 ± 0.072; (pdr5∆) 2.2 ± 0.057; (san1∆) 1.82 ± 0.075; (ubr1∆) 2.09 ± 0.062.
For the sequence RKDLRDKLICSIDPPGC [DIS3], the protein stability index reads like this: (doa10∆) 2.96 ± 0.066; (pdr5∆) 2.91 ± 0.047; (san1∆) 2.67 ± 0.055; (ubr1∆) 3.03 ± 0.051.
For the sequence FLIKASVREINLYMLVT [SSN8], the protein stability index runs as follows: (doa10∆) 1.55 ± 0.063; (pdr5∆) 1.43 ± 0.047; (san1∆) 1.89 ± 0.091; (ubr1∆) 1.44 ± 0.052.
For QLYKARMSIKLLRLASK [POP1], the protein stability index runs as follows: (doa10∆) 1.54 ± 0.064; (pdr5∆) 1.39 ± 0.072; (san1∆) 1.4 ± 0.11; (ubr1∆) 1.14 ± 0.048.
For KRNGSTLEQKVNLENPI [FAS1], the protein stability index was 2.2 ± 0.098 (doa10∆), 2.37 ± 0.12 (pdr5∆), 2.21 ± 0.11 (san1∆) and 3.09 ± 0.089 (ubr1∆).
On to RARVKAFPKDDRSKPVA [RPL3], for which the protein stability index was 2.85 ± 0.1 (doa10∆), 3.12 ± 0.1 (pdr5∆), 3.4 ± 0.047 (san1∆) and 3.15 ± 0.083 (ubr1∆).
The sequence KAGVKESDTGLAPSHLW [RPT1] came in with a protein stability index (doa10∆) of 2.93 ± 0.16 and a protein stability index (san1∆) of 3.09 ± 0.12.
As for GASNGDDSNGGNGEGLG [BRN1], the protein stability index runs as follows: (doa10∆) 3.42 ± 0.14; (pdr5∆) 2.83 ± 0.23; (san1∆) 3.68 ± 0.16; (ubr1∆) 3.19 ± 0.084.
On to SKIRKIHIQETQEFSKN [SIR3], for which the protein stability index was found to be 3.45 ± 0.11 (doa10∆), 3.08 ± 0.15 (pdr5∆) and 3.36 ± 0.084 (ubr1∆).
On to NSFKLFKAEKLQIVNQL [RPC17], for which the protein stability index (doa10∆) was determined as 2.82 ± 0.077, the protein stability index (pdr5∆) is 2.32 ± 0.076, the protein stability index (san1∆) amounted to 1.85 ± 0.16 and the protein stability index (ubr1∆) was found to be 2.13 ± 0.056.
For TLISRISSLFTITTILI [YML103C/NUP188], the protein stability index came to 1.63 ± 0.068 (doa10∆), 1.8 ± 0.066 (pdr5∆), 1.37 ± 0.088 (san1∆) and 2.02 ± 0.11 (ubr1∆).
Turning to GPLAEEPIYGVQYKLLS [SNU114], the protein stability index was determined as 2.9 ± 0.11 (doa10∆), 2.6 ± 0.12 (pdr5∆), 2.74 ± 0.08 (san1∆) and 3.17 ± 0.13 (ubr1∆).
In the case of ILEFITAAQVANVELTP [RPC34], the protein stability index runs as follows: (doa10∆) 2.68 ± 0.12; (pdr5∆) 2.13 ± 0.08; (san1∆) 2.27 ± 0.095; (ubr1∆) 1.53 ± 0.095.
Sequence TKSETKQENETMQPPYI [MED11] had a protein stability index (doa10∆) of 2.95 ± 0.051, a protein stability index (pdr5∆) of 2.85 ± 0.059, a protein stability index (san1∆) of 2.7 ± 0.1 and a protein stability index (ubr1∆) of 2.96 ± 0.042.
Take EVQFGLFSPEEVRAISV [RPO21]: the protein stability index is, setting by setting: (doa10∆) 2.85 ± 0.076; (pdr5∆) 3.04 ± 0.059; (san1∆) 3 ± 0.045; (ubr1∆) 3.12 ± 0.034.
On the same counts, the results for VHPGANYLLKRNEDARR [RPO31] are 3.21 ± 0.067, 3.14 ± 0.077, 2.93 ± 0.077 and 3.35 ± 0.038.
Turning to LLYADSLTAEAMTAAEH [CYT1], the protein stability index was 2.34 ± 0.056 (doa10∆), 2.67 ± 0.054 (pdr5∆), 2.78 ± 0.057 (san1∆) and 2.58 ± 0.041 (ubr1∆).
As for TQDVFLKDFNTERVVEI [FAS2], the protein stability index reads like this: (doa10∆) 3.116 ± 0.026; (pdr5∆) 3.205 ± 0.023; (san1∆) 3.211 ± 0.021; (ubr1∆) 3.093 ± 0.019.
Consider NPHQDLQAQDRAHRIGQ [SNF2], for which the protein stability index was determined as 3.03 ± 0.077 (doa10∆), 3.04 ± 0.074 (pdr5∆), 2.9 ± 0.07 (san1∆) and 3.19 ± 0.053 (ubr1∆).
Turning to TIGKRRTTTNTTAEPKA [TAF14], the protein stability index reads like this: (doa10∆) 3.07 ± 0.064; (pdr5∆) 3.26 ± 0.042; (san1∆) 3.15 ± 0.045; (ubr1∆) 3.2 ± 0.05.
Consider SKKVLECLPAEGHDWKA [DIS3], for which the protein stability index reads like this: (doa10∆) 1.65 ± 0.13; (pdr5∆) 1.69 ± 0.13; (san1∆) 1.47 ± 0.1; (ubr1∆) 1.55 ± 0.07.
For the sequence VITNLFSAIPFVGNDIV [COB], the protein stability index is, setting by setting: (doa10∆) 3.14 ± 0.05; (pdr5∆) 3.12 ± 0.053; (san1∆) 3.14 ± 0.034; (ubr1∆) 3.13 ± 0.036.
Turning to ELQKIYDRHQSSSKQQS [SMC4], the protein stability index by setting is: (doa10∆) 3.33 ± 0.084; (pdr5∆) 3.33 ± 0.095; (san1∆) 3.35 ± 0.08; (ubr1∆) 3.57 ± 0.051.
